Assay results reported in publication PMC9700832.

Tests used:
[1] = molecular target: Bacillus thuringiensis serovar israelensis LexA (B. thuringiensis serovar israelensis); assay: SPR; LexA immobilised on a CM5 chip (1200 to 1300 RU); analytes in three-fold dilutions (6-1458 nM), 180 s at 30 uL/min, 25 °C; 20 mM HEPES pH 7.4, 150 mM NaCl, 3 mM EDTA, 0.1 mg/mL BSA, 0.005% P20; apparent KD from steady-state affinity fits, two titrations
[2] = molecular target: Staphylococcus aureus LexA (S. aureus); assay: as above
[3] = molecular target: Staphylococcus aureus LexA (S. aureus); assay: SPR; […] (6-1458 nM), 180 s at 30 uL/min, 25 °C; 20 mM HEPES pH 7.4, 150 mM NaCl, 3 mM EDTA, 0.1 mg/mL BSA, 0.005% P20; […]

With “Bacillus thuringiensis uncharacterized protein M1QNS5 (natural protein)” the Kd [1] was 365 nM.
In the case of “Staphylococcus aureus nucleoid-associated protein HU, purified recombinant (from UniProt Q5HFV0 1-90) (natural protein)”, the Kd [2] is reported as 843 nM.
With “gp7 of bacteriophage GIL01 (natural protein)” the Kd [2] was 298 nM.
“tectiviral gp7 homolog from the phage found in Bacillus cereus HuB13-1 (natural protein)” showed a Kd [2] of 787 nM.
“tectiviral gp7 homolog from the phage found in Bacillus cereus VD184 (natural protein)” gave a Kd [2] of 381 nM.
With “tectiviral gp7 homolog from the phage found in Bacillus thuringiensis serovar aizawai (natural protein)” the Kd [2] was 302 nM.
“tectiviral gp7 homolog of Bacillus anthracis phage AP50 (natural protein)” showed a Kd [3] of 446 nM.
Work on “tectiviral gp7 homolog of Bacillus mycoides VDm034 phage Lima (natural protein)” yielded a Kd [3] of 331 nM.
